The results in this text go back to the supplement of paper PMC5998384.

For data set [1], the system named is HeLa Kyoto. Kind of data set: solubility in G1/S (NP-40 vs SDS abundance) (log2 ratio); higher = more soluble. The conditions noted are these: cell cycle stage: G1/S.
Data set [2] concerns HeLa Kyoto. Kind of data set: thermal stability score vs G1/S (z-score of summed log2 fold changes over temperatures); higher = more thermally stable than in G1/S.
In data set [3] the test system is HeLa Kyoto. Kind of data set: melting temperature (median over replicates), in situ; higher = more thermally stable.
Data set [4] concerns HeLa Kyoto. Kind of data set: solubility change mitosis vs G1/S (difference of NP-40 vs SDS log2 ratios) (log2 ratio difference); higher = more soluble in mitosis.
[5] abbreviates: cell cycle stage: early G1 (4.5 h after nocodazole release).
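Throughout, for melting temperature (median over replicates), in situ: HeLa Kyoto cells synchronized by double thymidine or nocodazole block, proteins quantified by TMT10plex mass spectrometry, three independent biological replicates.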
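Throughout, for solubility change mitosis vs G1/S (difference of NP-40 vs SDS log2 ratios): synchronized HeLa Kyoto cells (double thymidine block for G1/S, nocodazole release for mitosis), protein amounts in NP-40 versus SDS lysates quantified by mass spectrometry, three biological replicates.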
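Throughout, for solubility in G1/S (NP-40 vs SDS abundance): HeLa Kyoto cells arrested at G1/S by double thymidine block, proteins quantified by TMT10plex mass spectrometry in mild NP-40 versus SDS extracts, three biological replicates.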
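Throughout, for thermal stability score vs G1/S (z-score of summed log2 fold changes over temperatures): synchronized HeLa Kyoto cells, proteins quantified by TMT10plex mass spectrometry, three biological replicates, mitosis taken 0.5 h after nocodazole release, G1/S directly after double thymidine block.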

For “METQLQSIFEEVVKTEVIEEAFPGMFMDTPEDEKTKLISCLGAFRQFWGGLSQESHEQCIQWIVKFIHGQHSPKRISFLYDCLAMAVETGLLPPRLVCESLINSDTLEWERTQLWALTFKLVRKIIGGVDYKGVRDLLKVILEKILTIPNTVSSAVVQQLLAAREVIAYILERNACLLPAYFAVTEIRKLYPEGKLPHWLLGNLVSDFVDTFRPTARINSICGRCSLLPVVNNSGAICNSWKLDPATLRFPLKGLLPYDKDLFEPQTALLRYVLEQPYSRDMVCNMLGLNKQHKQRCPVLEDQLVDLVVYAMERSETEEKFDDGGTSQLLWQHLSSQLIFFVLFQFASFPHMVLSLHQKLAGRGLIKGRDHLMWVLLQFISGSIQKNALADFLPVMKLFDLLYPEKEYIPVPDINKPQSTHAFAMTCIWIHLNRKAQNDNSKLQIPIPHSLRLHHEFLQQSLRNKSLQMNDYKIALLCNAYSTNSECFTLPMGALVETIYGNGIMRIPLPGTNCMASGSITPLPMNLLDSLTVHAKMSLIHSIATRVIKLAHAKSSVALAPALVETYSRLLVYMEIESLGIKGFISQLLPTVFKSHAWGILHTLLEMFSYRMHHIQPHYRVQLLSHLHTLAAVAQTNQNQLHLCVESTALRLITALGSSEVQPQFTRFLSDPKTVLSAESEELNRALILTLARATHVTDFFTGSDSIQGTWCKDILQTIMSFTPHNWASHTLSCFPGPLQAFFKQNNVPQESRFNLKKNVEEEYRKWKSMSNENDIITHFSMQGSPPLFLCLLWKMLLETDHINQIGYRVLERIGARALVAHVRTFADFLVYEFSTSAGGQQLNKCIEILNDMVWKYNIVTLDRLILCLAMRSHEGNEAQVCYFIIQLLLLKPNDFRNRVSDFVKENSPEHWLQNDWHTKHMNYHKKYPEKLYFEGLAEQVDPPVQIQSPYLPIYFGNVCLRFLPVFDIVIHRFLELLPVSKSLETLLDHLGGLYKFHDRPVTYLYNTLHYYEMHLRDRAFLKRKLVHAIIGSLKDNRPQGWCLSDTYLKCAMNAREENPWVPDDTYYCRLIGRLVDTMAGKSPGPFPNCDWRFNEFPNPAAHALHVTCVELMALAVSGKEVGNALLNVVLKSQPLVPRENITAWMNAIGLIITALPEPYWIVLHDRIVSVISSPSLTSETEWVGYPFRLFDFTACHQSYSEMSCSYTLALAHAVWHHSSIGQLSLIPKFLTEVLLPIVKTEFQLLYVYHLVGPFLQRFQQERTRCMIEIGVAFYDMLLNVDQCSTHLNYMDPICDFLYHMKYMFTGDSVKEQVEKIICNLKPALKLRLRFITHISKMEPAAVPPQAMNSGSPAPQSNQVPVSLPVTQ [MED23]”, in the data set on HeLa Kyoto [1], the “solubility in G1/S (log2)” value was -0.217. Moreover, the figures for the thermal stability score in the data set on HeLa Kyoto [2] (setting [5]) and in the data set on HeLa Kyoto [2] (cell cycle stage: mitosis) were 1.35 and 1.94, respectively. For the same sequence, the melting temperature amounted to 50.5 °C in the data set on HeLa Kyoto [3] (cell cycle stage: G1/S) and 51.1 °C in the data set with HeLa Kyoto [3] (cell cycle stage: mitosis). For the same sequence, in the data set with HeLa Kyoto [4], the “solubility change mitosis (log2)” value was -0.141.

As for “METSAPRAGSQVVATTARHSAAYRADPLRVSSRDKLTEMAASSQGNFEGNFESLDLAEFAKKQPWWRKLFGQESGPSAEKYSVATQLFIGGVTGWCTGFIFQKVGKLAATAVGGGFFLLQLANHTGYIKVDWQRVEKDMKKAKEQLKIRKSNQIPTEVRSKAEEVVSFVKKNVLVTGGFFGGFLLGMAS [FUNDC2]”, the “solubility in G1/S (log2)” value in the data set with HeLa Kyoto [1] was 0.0627. For the same sequence, the thermal stability score in the data set on HeLa Kyoto [2] (setting [5]) is -0.847; in the data set with HeLa Kyoto [2] (cell cycle stage: mitosis) it was -1.68. Moreover, the melting temperature is 58.2 °C in the data set with HeLa Kyoto [3] (cell cycle stage: G1/S) and 55.9 °C with HeLa Kyoto [3] (cell cycle stage: mitosis). The “solubility change mitosis (log2)” value in the data set on HeLa Kyoto [4] is -0.0574.

For “MEVLAAETTSQQERLQAIAEKRKRQAEIENKRRQLEDERRQLQHLKSKALRERWLLEGTPSSASEGDEDLRRQMQDDEQKTRLLEDSVSRLEKEIEVLERGDSAPATAKENAAAPSPVRAPAPSPAKEERKTEVVMNSQQTPVGTPKDKRVSNTPLRTVDGSPMMKAAMYSVEITVEKDKVTGETRVLSSTTLLPRQPLPLGIKVYEDETKVVHAVDGTAENGIHPLSSSEVDELIHKADEVTLSEAGSTAGAAETRGAVEGAARTTPSRREITGVQAQPGEATSGPPGIQPGQEPPVTMIFMGYQNVEDEAETKKVLGLQDTITAELVVIEDAAEPKEPAPPNGSAAEPPTEAASREENQAGPEATTSDPQDLDMKKHRCKCCSIM [PALM]”, the “solubility in G1/S (log2)” value in the data set on HeLa Kyoto [1] amounted to 0.0461. Further, the values for the thermal stability score in the data set on HeLa Kyoto [2] (setting [5]) and with HeLa Kyoto [2] (cell cycle stage: mitosis) were -0.779 and -1.02, respectively. Also, the melting temperature with HeLa Kyoto [3] (cell cycle stage: G1/S) is 55.2 °C; with HeLa Kyoto [3] (cell cycle stage: mitosis), 57 °C. Also, in the data set on HeLa Kyoto [4], the “solubility change mitosis (log2)” value amounted to 0.116.

Consider “MEVPPPAPRSFLCRALCLFPRVFAAEAVTADSEVLEERQKRLPYVPEPYYPESGWDRLRELFGKDEQQRISKDLANICKTAATAGIIGWVYGGIPAFIHAKQQYIEQSQAEIYHNRFDAVQSAHRAATRGFIRYGWRWGWRTAVFVTIFNTVNTSLNVYRNKDALSHFVIAGAVTGSLFRINVGLRGLVAGGIIGALLGTPVGGLLMAFQKYSGETVQERKQKDRKALHELKLEEWKGRLQVTEHLPEKIESSLQEDEPENDAKKIEALLNLPRNPSVIDKQDKD [TIMMDC1]”, for which the “solubility in G1/S (log2)” value in the data set with HeLa Kyoto [1] was -0.03. For the same sequence, the thermal stability score is -2.95 in the data set with HeLa Kyoto [2] (setting [5]) and -2.24 in the data set on HeLa Kyoto [2] (cell cycle stage: mitosis). The melting temperature was determined as 55.6 °C with HeLa Kyoto [3] (cell cycle stage: G1/S) and 55.2 °C in the data set on HeLa Kyoto [3] (cell cycle stage: mitosis). Also, in the data set on HeLa Kyoto [4], the “solubility change mitosis (log2)” value turned out to be 0.01.

With “MEVVPAEVNSLLPEEIMDTGITLVDDDSIEAVIVSSPIPMETELEEIVNINSTGDSTATPISTEPITVYSNHTNQVAVNTTITKADSNTTVKPAFPSGLQKLGAQTPVTISANQIILNKVSQTSDLKLGNQTLKPDGQKLILTTLGKSGSPIVLALPHSQLPQAQKVTTQAQSGDAKLPPQQIKVVTIGGRPEVKPVIGVSALTPGSQLINTTTQPSVLQTQQLKTVQIAKKPRTPTSGPVITKLIFAKPINSKAVTGQTTQVSPPVIAGRVLSQSTPGTPSKTITISESGVIGSTLNSTTQTPNKIAISPLKSPNKAVKSTVQTITVGGVSTSQFKTIIPLATAPNVQQIQVPGSKFHYVRLVTATSASSSTQPVSQNPSTNTQPLQQAKPVVVNTTPVRMSVPIVSAQAVKQVVPKPINPTSQIVTTSQPQQRLIMPATPLPQIQPNLTNLPPGTVLAPAPGTGNVGYAVLPAQYVTQLQQSSYVSIASNSTFTGTSGIQTQARLPFNGIIPSESASRPRKPCNCTKSLCLKLYCDCFANGEFCNNCNCTNCYNNLEHENERQKAIKACLDRNPEAFKPKIGKGKEGESDRRHSKGCNCKRSGCLKNYCECYEAKIMCSSICKCIGCKNFEESPERKTLMHLADAAEVRVQQQTAAKTKLSSQISDLLTRPTPALNSGGGKLPFTFVTKEVAEATCNCLLAQAEQADKKGKSKAAAERMILEEFGRCLMSVINSAGKAKSDPCAMNC [LIN54]”, the “solubility in G1/S (log2)” value in the data set on HeLa Kyoto [1] was 0.15. Moreover, the thermal stability score in the data set on HeLa Kyoto [2] (setting [5]) turned out to be 0.22; in the data set on HeLa Kyoto [2] (cell cycle stage: mitosis) it was 0.778. For the same sequence, the melting temperature turned out to be 46.4 °C in the data set on HeLa Kyoto [3] (cell cycle stage: G1/S) and 50.1 °C with HeLa Kyoto [3] (cell cycle stage: mitosis). In addition, in the data set on HeLa Kyoto [4], the “solubility change mitosis (log2)” value is -0.11.
